T1: Human heat shock transcription factor 1 (Hsf1), wild type (human), Q00613
T1 chain: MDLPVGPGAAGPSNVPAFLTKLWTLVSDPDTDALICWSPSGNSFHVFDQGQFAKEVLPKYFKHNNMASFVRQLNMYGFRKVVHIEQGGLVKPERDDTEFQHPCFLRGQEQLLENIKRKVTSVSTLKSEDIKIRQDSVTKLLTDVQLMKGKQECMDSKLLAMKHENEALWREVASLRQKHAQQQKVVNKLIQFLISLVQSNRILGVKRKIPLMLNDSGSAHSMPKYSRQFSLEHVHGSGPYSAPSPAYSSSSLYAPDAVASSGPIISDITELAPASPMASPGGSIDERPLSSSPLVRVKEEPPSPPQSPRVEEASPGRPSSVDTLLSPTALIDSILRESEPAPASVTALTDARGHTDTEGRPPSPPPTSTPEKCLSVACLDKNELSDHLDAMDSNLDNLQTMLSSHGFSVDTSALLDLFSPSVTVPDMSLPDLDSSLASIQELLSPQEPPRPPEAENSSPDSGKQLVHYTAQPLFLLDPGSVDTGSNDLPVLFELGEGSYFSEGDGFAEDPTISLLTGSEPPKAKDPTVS

T2: Hsf1 wild type expressed from pIRES‐HSF1_hrGFP in cells (human), Q00613
T2 chain: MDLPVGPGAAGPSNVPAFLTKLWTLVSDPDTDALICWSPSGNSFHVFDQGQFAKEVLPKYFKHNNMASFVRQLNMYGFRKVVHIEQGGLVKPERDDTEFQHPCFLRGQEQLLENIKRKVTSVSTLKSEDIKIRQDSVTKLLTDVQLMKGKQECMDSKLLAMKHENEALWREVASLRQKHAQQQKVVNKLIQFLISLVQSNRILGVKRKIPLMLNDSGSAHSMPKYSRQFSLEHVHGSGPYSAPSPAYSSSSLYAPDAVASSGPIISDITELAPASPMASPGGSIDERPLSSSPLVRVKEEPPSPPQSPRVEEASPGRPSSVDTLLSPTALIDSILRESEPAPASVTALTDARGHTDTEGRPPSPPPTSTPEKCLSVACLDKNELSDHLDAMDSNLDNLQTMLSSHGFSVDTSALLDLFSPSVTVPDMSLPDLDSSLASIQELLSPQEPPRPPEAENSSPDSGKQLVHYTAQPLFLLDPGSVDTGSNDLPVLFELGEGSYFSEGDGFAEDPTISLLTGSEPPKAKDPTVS

B1: Human heat shock transcription factor 1 (Hsf1), wild type, Q00613 1-529 (natural protein)
chain: MDLPVGPGAAGPSNVPAFLTKLWTLVSDPDTDALICWSPSGNSFHVFDQGQFAKEVLPKYFKHNNMASFVRQLNMYGFRKVVHIEQGGLVKPERDDTEFQHPCFLRGQEQLLENIKRKVTSVSTLKSEDIKIRQDSVTKLLTDVQLMKGKQECMDSKLLAMKHENEALWREVASLRQKHAQQQKVVNKLIQFLISLVQSNRILGVKRKIPLMLNDSGSAHSMPKYSRQFSLEHVHGSGPYSAPSPAYSSSSLYAPDAVASSGPIISDITELAPASPMASPGGSIDERPLSSSPLVRVKEEPPSPPQSPRVEEASPGRPSSVDTLLSPTALIDSILRESEPAPASVTALTDARGHTDTEGRPPSPPPTSTPEKCLSVACLDKNELSDHLDAMDSNLDNLQTMLSSHGFSVDTSALLDLFSPSVTVPDMSLPDLDSSLASIQELLSPQEPPRPPEAENSSPDSGKQLVHYTAQPLFLLDPGSVDTGSNDLPVLFELGEGSYFSEGDGFAEDPTISLLTGSEPPKAKDPTVS
B2: Hsf1 wild type expressed from pIRES‐HSF1_hrGFP in cells, Q00613 1-529 (natural protein)
chain: MDLPVGPGAAGPSNVPAFLTKLWTLVSDPDTDALICWSPSGNSFHVFDQGQFAKEVLPKYFKHNNMASFVRQLNMYGFRKVVHIEQGGLVKPERDDTEFQHPCFLRGQEQLLENIKRKVTSVSTLKSEDIKIRQDSVTKLLTDVQLMKGKQECMDSKLLAMKHENEALWREVASLRQKHAQQQKVVNKLIQFLISLVQSNRILGVKRKIPLMLNDSGSAHSMPKYSRQFSLEHVHGSGPYSAPSPAYSSSSLYAPDAVASSGPIISDITELAPASPMASPGGSIDERPLSSSPLVRVKEEPPSPPQSPRVEEASPGRPSSVDTLLSPTALIDSILRESEPAPASVTALTDARGHTDTEGRPPSPPPTSTPEKCLSVACLDKNELSDHLDAMDSNLDNLQTMLSSHGFSVDTSALLDLFSPSVTVPDMSLPDLDSSLASIQELLSPQEPPRPPEAENSSPDSGKQLVHYTAQPLFLLDPGSVDTGSNDLPVLFELGEGSYFSEGDGFAEDPTISLLTGSEPPKAKDPTVS

Legend:
Conditions in all cases: remark: other sources report otherwise
[1] = target: T1, Human heat shock transcription factor 1 …; assay: native gel or EMSA; blue-native PAGE (8% gel, on ice) of purified Hsf1 wild type or variants, also after 10 min at 4–42°C (5 μM protein); Coomassie stain or immunoblot with Hsf1 antiserum
[2] = target: T1, Human heat shock transcription factor 1 …; assay: SEC + native gel or EMSA; trimer-to-monomer ratio of freshly purified Hsf1 in the absence of heat shock, by gel filtration (Superdex 200) and BN-PAGE
[3] = target: T2, Hsf1 wild type expressed from …; assay: native gel or EMSA; blue-native PAGE of lysates (15 μg total protein) of transfected HSF1−/− MEFs, immunoblot with Hsf1 antiserum

Binder | stoichiometry N [1] | stoichiometry N [2] | stoichiometry N [3]
B1 | 3 | 3 | –
B2 | – | – | 3

From PMC7360973
